# Experimental data published in PMC10995199, “Architecture and regulation of filamentous human cystathionine beta-synthase” (Nature Communications, 2024).
# T1: full-length human cystathionine beta-synthase, N-terminal His-tag removed during purification (CBS^FL) (human), P35520
# T1 chain: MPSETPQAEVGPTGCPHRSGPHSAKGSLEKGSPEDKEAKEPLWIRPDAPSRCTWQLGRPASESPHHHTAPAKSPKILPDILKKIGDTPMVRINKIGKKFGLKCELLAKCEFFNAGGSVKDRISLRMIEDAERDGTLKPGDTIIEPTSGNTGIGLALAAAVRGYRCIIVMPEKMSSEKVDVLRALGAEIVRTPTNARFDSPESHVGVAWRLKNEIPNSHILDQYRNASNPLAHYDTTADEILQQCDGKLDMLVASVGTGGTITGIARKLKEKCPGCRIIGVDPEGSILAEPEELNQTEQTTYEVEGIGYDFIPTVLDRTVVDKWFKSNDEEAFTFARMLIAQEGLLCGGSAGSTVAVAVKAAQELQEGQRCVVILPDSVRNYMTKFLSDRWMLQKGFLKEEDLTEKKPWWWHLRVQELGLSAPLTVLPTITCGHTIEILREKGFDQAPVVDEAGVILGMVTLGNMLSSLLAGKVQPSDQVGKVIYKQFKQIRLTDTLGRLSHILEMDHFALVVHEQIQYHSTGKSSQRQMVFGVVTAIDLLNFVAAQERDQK
# T2: full-length human cystathionine beta-synthase with a permanent C-terminal His-tag (CBS^FL-CHis) (human), P35520
# T2 chain: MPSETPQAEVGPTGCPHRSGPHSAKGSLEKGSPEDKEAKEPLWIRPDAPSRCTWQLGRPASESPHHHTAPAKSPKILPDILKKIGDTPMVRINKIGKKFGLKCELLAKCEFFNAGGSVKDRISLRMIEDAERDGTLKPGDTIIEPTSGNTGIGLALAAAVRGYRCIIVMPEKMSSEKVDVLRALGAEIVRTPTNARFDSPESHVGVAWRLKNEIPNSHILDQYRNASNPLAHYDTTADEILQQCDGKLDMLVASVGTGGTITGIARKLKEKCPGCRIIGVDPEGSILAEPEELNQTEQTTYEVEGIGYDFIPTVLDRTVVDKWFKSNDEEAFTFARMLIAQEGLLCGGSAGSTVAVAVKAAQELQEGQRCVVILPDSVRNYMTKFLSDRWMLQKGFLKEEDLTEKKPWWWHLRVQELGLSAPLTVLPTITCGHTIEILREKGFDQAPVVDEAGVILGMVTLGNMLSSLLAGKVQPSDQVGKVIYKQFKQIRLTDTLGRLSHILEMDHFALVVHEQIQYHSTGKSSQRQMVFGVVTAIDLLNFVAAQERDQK
# What was measured:
# Conditions in all cases: remark: other sources report otherwise
# [1] = target: T1, full-length human cystathionine …; assay: SEC; analytical Superose 6 Increase 10/300 GL; 25 mM HEPES pH 7.5, 500 mM NaCl, 0.5 mM TCEP, 5% glycerol; 250 µl loaded at 3.0 mg/ml; self-association
# [2] = target: T1, full-length human cystathionine …; assay: native gel or EMSA; Coomassie-stained clear-native and blue-native PAGE; 25 mM HEPES pH 7.5, 200 mM NaCl, 2.0 mM TCEP; 1.0 mg/ml, 8.0 µg protein; without or with 1 mM SAM (no apparent effect on the oligomeric status); self-association
# [3] = target: T2, full-length human cystathionine …; assay: SEC; analytical Superose 6 Increase 10/300 GL; 25 mM HEPES pH 7.5, 500 mM NaCl, 0.5 mM TCEP, 5% glycerol; 250 µl loaded at 3.0 mg/ml; self-association
stoichiometry N [1],stoichiometry N [2],stoichiometry N [3],Binder
> 4,> 4,,"full-length human cystathionine beta-synthase, N-terminal His-tag removed during purification (CBS^FL), P35520 1-551 (enzyme) MPSETPQAEVGPTGCPHRSGPHSAKGSLEKGSPEDKEAKEPLWIRPDAPSRCTWQLGRPASESPHHHTAPAKSPKILPDILKKIGDTPMVRINKIGKKFGLKCELLAKCEFFNAGGSVKDRISLRMIEDAERDGTLKPGDTIIEPTSGNTGIGLALAAAVRGYRCIIVMPEKMSSEKVDVLRALGAEIVRTPTNARFDSPESHVGVAWRLKNEIPNSHILDQYRNASNPLAHYDTTADEILQQCDGKLDMLVASVGTGGTITGIARKLKEKCPGCRIIGVDPEGSILAEPEELNQTEQTTYEVEGIGYDFIPTVLDRTVVDKWFKSNDEEAFTFARMLIAQEGLLCGGSAGSTVAVAVKAAQELQEGQRCVVILPDSVRNYMTKFLSDRWMLQKGFLKEEDLTEKKPWWWHLRVQELGLSAPLTVLPTITCGHTIEILREKGFDQAPVVDEAGVILGMVTLGNMLSSLLAGKVQPSDQVGKVIYKQFKQIRLTDTLGRLSHILEMDHFALVVHEQIQYHSTGKSSQRQMVFGVVTAIDLLNFVAAQERDQK"
,,> 4,"full-length human cystathionine beta-synthase with a permanent C-terminal His-tag (CBS^FL-CHis), P35520 1-551 (enzyme) MPSETPQAEVGPTGCPHRSGPHSAKGSLEKGSPEDKEAKEPLWIRPDAPSRCTWQLGRPASESPHHHTAPAKSPKILPDILKKIGDTPMVRINKIGKKFGLKCELLAKCEFFNAGGSVKDRISLRMIEDAERDGTLKPGDTIIEPTSGNTGIGLALAAAVRGYRCIIVMPEKMSSEKVDVLRALGAEIVRTPTNARFDSPESHVGVAWRLKNEIPNSHILDQYRNASNPLAHYDTTADEILQQCDGKLDMLVASVGTGGTITGIARKLKEKCPGCRIIGVDPEGSILAEPEELNQTEQTTYEVEGIGYDFIPTVLDRTVVDKWFKSNDEEAFTFARMLIAQEGLLCGGSAGSTVAVAVKAAQELQEGQRCVVILPDSVRNYMTKFLSDRWMLQKGFLKEEDLTEKKPWWWHLRVQELGLSAPLTVLPTITCGHTIEILREKGFDQAPVVDEAGVILGMVTLGNMLSSLLAGKVQPSDQVGKVIYKQFKQIRLTDTLGRLSHILEMDHFALVVHEQIQYHSTGKSSQRQMVFGVVTAIDLLNFVAAQERDQK"
